Results on 6 substances are retold here after paper PMC11251522.

Bounds are passed on as bounds.

In one data set the target is Sox2 HMG (human) (UniProt P48431). In words: fluorescence anisotropy. The following applies: FP at 4°C, ERα: 20 mM Tris pH 7.5 (at 25°C), 100 mM NaCl, 5% glycerol, 0.01% IGEPAL, Sox2: 10 mM Tris pH 7.5 (at 25°C), 135 mM KCl, 15 mM NaCl, 0.1 mg/mL BSA ….
For the next data set, the system named is ERα DBD-Ext (human). Put plainly: fluorescence anisotropy. Particulars: apparent, FP at 4°C, ERα: 20 mM Tris pH 7.5 (at 25°C), 100 mM NaCl, 5% glycerol, 0.01% IGEPAL, Sox2: 10 mM Tris pH 7.5 (at 25°C), 135 mM KCl, 15 mM NaCl, 0.1 mg/mL BSA ….

Sox2 HMG (human), sequence (P48431 40-123): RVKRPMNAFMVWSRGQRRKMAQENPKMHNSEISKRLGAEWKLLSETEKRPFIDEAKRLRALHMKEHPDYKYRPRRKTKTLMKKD

For CBS dsDNA (10 bp), the Kd in the data set with Sox2 HMG (human) (printed ≤1, first (high-affinity) transition, 54% of signal) is under 1 nM; with Sox2 HMG (human) (second (low-affinity) transition) it was 420 nM. On to ERE dsDNA (18 bp), for which the Kd with ERα DBD-Ext (human) (Hill n 2.1) turned out to be 11 nM. On to NBS dsDNA (19 bp), for which the Kd with Sox2 HMG (human) (apparent, Hill n 0.57) came to 29 nM.

On to XBP1 hRNA (37 nt), for which the Kd with ERα DBD-Ext (human) (Hill n 0.91) is 370 nM.

Turning to hRNA (43 nt), the Kd with Sox2 HMG (human) (apparent, Hill n 1.1) came to 53 nM.

As for ΔERE dsDNA (15 bp, half-site), in the data set on ERα DBD-Ext (human) (Hill n 1.5, about half the ligand concentration, true Kd may be lower), the Kd amounted to 2.8 nM.
